The source of these data is the DeepSol protein solubility set.

The data set in a line: soluble on expression in E. coli; label from the status in PepcDB or PDB records.
Consider “MGSDKIHHHHHHMKQIKHTFEEKKKMGGKASMWNLWHGCHKWSEGCRHCYVYRTDGKYGKDSSVVTKTEKFGLPLQKKKNGEYKIPSGNLVYTCFTSDFLIEDVDEWRAEAWEMMRIRQDLHFMFITKRIDRLQQCLPPDWGDGYDNVTICCTMENQDRVDYRLPIYKESPIKHKIIICEPLLSQIDFRGELEGWVEQVVAGGESGKEARVCNYDWVLDIRRQCVEAHVGFWFKQTGSYLLKDGHEYKVARQFQHSQARKAELNYTPEK”, for which the “soluble on expression in E. coli” value is recorded as “not soluble”.

Turning to “TYDGKVESVVLGFATEVPEPWVTEKLSITEEELVYKIIRLRIIEDVPSIIEYTWMPVALIPNLTMKELKVSIYQYISEQLHQKIQSARVSISGIRPSPLEKKYLNLTDNDFLMRAEQIAYLGNGHIFEYSIANHIPSEFTFETVLIAEK”, the “soluble on expression in E. coli” value is given as “not soluble”.

Take “MPDSPAEVKTQPRSTPPSMPPPPPTSSQGATRPPSFTPHTLMNGSSHSPTAIHGAPSTPNGFSNGPATSSTASLSTQHLPPACGARQLSKLKRFLTTLQQFGSDISPEIGERVRTLVLGLVNSTLTIEEFHAKLQEATNFPLRPFVIPFLKANLPLLQRELLHCARLAKQTPAQYLAQHEQLLLDASATSPVDSSELLLEVNENGKRRTPDRTKENGSDRDPLHPDHLSKRSCTLSPAQRCSPSNGLPHPTPPPPPHYRLEDMAMAHHFRDSYRHPDPRELRERHRPLAIPGLDKKK”: the “soluble on expression in E. coli” value is recorded as “soluble”.

For the sequence “MESINYQILKRSEKKLLGLFFDYFQHVIKMHETLNKLLCEADVTKREKLIQAIYEMEDFSNKSEFKLINESIWAISKNSPLTNHLRLTITIIMCSRDLERICDYANNLTKFVKHYQHLDVSIFSKLVNLHKSVLNNLKQTFASLQDKEKPLTIQFENVTKILTEFEQQYRVVLTEYYDKVKDEKLSDRIFLIDLILSVKHIERINDYCYNIIKAFLFVKNPEVFN”, the “soluble on expression in E. coli” value is recorded as “soluble”.

Consider “MAHHHHHHMNDSISSPIKATCRDMALKSSLHSFTFSLKDFDIAGFLGDGAHGSVFLACERRTNFICVLKCISKSHLVKSTQEALLRKEIELQAHLKHPHIACMYTWFHTSSHVFFVMEYCSNGDLFTYLNENGPFCEKKVAEMLFEIIWAIRTCHDKRIAHLDLKPENVLVNHEEKCKLADFGLSAHIGSKHKKKGISHYRGTHDYWSPEQCARHQKKKQNFGEFDQKTDIWTLGILAFELKFGRPPFGSTNEERENVIMNRIQDYHWSQLFCEKVKQDLIDKLSPEFKDFLNLCLDKNPKKRPTAESLIQHPFIFIHNKNRSCIKSYATQPRGKQGPKLSHKGFNEQDGSFLTPIWFHNK”, for which the “soluble on expression in E. coli” value is “soluble”.

With “GMAEYEDRYWTSSDGLRLHFRAYEGDISRPPVLCLPGLTRNARDFEDLATRLAGDWRVLCPEMRGRGDSDYAKDPMTYQPMQYLQDLEALLAQEGIERFVAIGTSLGGLLTMLLAAANPARIAAAVLNDVGPEVSPEGLERIRGYVGQGRNFETWMHAARALQESSGDVYPDWDITQWLRYAKRIMVLGSSGRIAFDYDMKIAEPFEAPVGATPQVDMWPLFDALATRPLLVLRGETSDILSAQTAAKMASRPGVELVTLPRIGHAPTLDEPESIAAIGRLLERV”, the “soluble on expression in E. coli” value is on record as “soluble”.

Turning to “MLYKGCLMKSDVQLNLRAKESQRALIDAAAEILHKSRTDFILETACQAAEKVILDRRVFNFNDEQYEEFINLLDAPVADDPVIEKLLARKPQWDV”, the “soluble on expression in E. coli” value is listed as “not soluble”.

For the sequence “MQVINLKYPVALSQIPEGPIVLALGFFDGVHRGHQQVVATARQAAQAQHAKLAVMTFDQHPSVVFKHTDPQQVRYLTTIDQKTALMSELGVDILYVLHFDATVGAMPPQTFVDQLIVGLHAQTVVAGFDYTYGPAEIANMQRLNDYGHNRFEIIEVPKAELDAEKISSTRIRRALDAGDIDTANRLLGYQYETAGEVVHGEARGRTLGFPTANVAHGPNTRVPGIGIYATMVQIGTRWVMGMASVGRNVTFGDHRPITVEIYLLDFRGDLYGHNLTVRWGHRMRGEIKFAGADALVAQLKRDEQNTRDYYVAHPFVVAPRIQVAQQSNRLEAQ”, the “soluble on expression in E. coli” value is reported as “not soluble”.

As for “MIDREQIVRIVSDYLSTGETFLVEVAIHPGNRILVELDSAQGVCIDECVALSRHIESQVDRDIEDYELEVGSTGLTSPLKVMRQWENCIDSELSVLLTNGMKETGRLITVAPEAIKLEVVRMVKPEGAKRKKPETQELTIVMADIKQAVRII”, the “soluble on expression in E. coli” value is listed as “not soluble”.

“MQAFEPYIALNSHVRKPVIHISLNPSPKDILSKEQMTVLAQEFMEKFGYGNQPYIVWLHEDIDRKHMHIISVRINEKGEKIDHNREAIRAQNICRDMEVKYGLHSTLGEHSERELLSLQKVDYPKGDVKAQVKHTARTLLECYNCHSLAEYNTLLNLYNVTVYEVRGSVDGKEYYGIMYGALDDDGQQAGTPFKSSKFGKVFGYEALQKKFAATAEKVKRNSLAERARQEIVKAMQDISTKEAFARRLKDADIEVVYRINPEGRLYGITFIDHTNRTVFNGSRLGKAFSANVFNELFNNPDADRTKLIPPPEQDTPRQARETDAEERQEREEYRQQENRGNYQSEPSGSLIDTSALGAIDIFSVLMEDDHTHEYIDPAFRFGHKKKKKRRRRLLEHHHHHH”: the “soluble on expression in E. coli” value is reported as “soluble”.

Turning to “MVFMQKRIIYGIDIARGSPRARELPRYALAILRDGEISHFSMLRRQKIFNMIQRDRPEIIAVDNIFELAADRNELLSLMERLPDGVKLVQVTGGLHPEPLVRIARKHGISLDPENPNDEAEACARLADLGVGHEVSLFEDITKIKVSRARSLGRGGWSQNRYRRKVHGAVLQRSREIENILKDLSREKGIRFEAVNVKGFGGYVRSEFTVYAKRGEVPVHSMASNDAQVSVRSVERDKIRYVPLKPRSQKRKFTIVGLDPGTTVGIAILSLDGDLLYLKSFRGIAPDEVVKIIAEYGKPAVIASDVTPMPGSVEKIRRSFNAVPASPGIEVSAEEKIALGKTFGYSNDHERDALTAALLTYRSYKNIFTRIEKKAPENSDLELIKLHVIRGESIESAIEKVRAASQAREKPAGARAAPEKPEEKAVDESFQRMRETVQRQGEQIQNLQEYVEELKQAMAAKDRKISKLESRLKGFKKEAYSEIRKSKEVQIRDSTIESLKKELSNKNKTVKELRRRSNKLRKIQKMEIRGEGTPVKVIAAFTKESIAETKEKYGLKAGDVVFLEKPSGGGAATAQILVEARVRAVIIPEDISHAAEETFFKGDVPVLRDIQLERADDFAMALEHHHHHH”, the “soluble on expression in E. coli” value is reported as “not soluble”.

Regarding “MTFSLFGDKFTRHSGITLLMEDLNDGLRTPGAIMLGGGNPAQIPEMQDYFQTLLTDMLESGKATDALCNYDGPQGKTELLTLLAGMLREKLGWDIEAQNIALTNGSQSAFFYLFNLFAGRRADGRVKKVLFPLAPEYIGYADAGLEEDLFVSARPNIELLPEGQFKYHVDFEHLHIGEETGMICVSRPTNPTGNVITDEELLKLDALANQHGIPLVIDNAYGVPFPGIIFSEARPLWNPNIVLCMSLSKLGLPGSRCGIIIANEKIITAITNMNGIISLAPGGIGPAMMCEMIKRNDLLRLSETVIKPFYYQRVQETIAIIRRYLPEDRCLIHKPEGAIFLWLWFKDLPITTEQLYQRLKARGVLMVPGHNFFPGLDKPWPHTHQCMRMNYVPEPEKIEAGVKILAEEIERAWAESH”, the “soluble on expression in E. coli” value was “soluble”.

For “MAHHHHHHMLNCFFGAELKPDGVPISFTIPKGTTLVITQCAVTSVVPPQQSTDAGASSSPAVVAKAYNPVTLCVQGHGLPTRFAVCSLSPAQHITYCPLQLLFSKPVSFVLVPQTGSTAAAAAASSSPSPAPHAGKKTGRNQKHSKTTAGAHGAGAEATAVYPTVHLTGYYERAADEDEEDGSMAMDVMESSDDGENDDLSDDE”, the “soluble on expression in E. coli” value is listed as “soluble”.

“MDDRRPQLTEEQLLFRIALTHVKGVGSVLARQLLSAMGSPEAIFSDRKELVQRLPKAPRRLLDAIFSPSVMEEARRKLDQALKAGLNMYFITDDNYPYRLKECVDAPILLYSKGNVDLSPRRVLSIVGTRNITAYGRTATERIVSGLAETIPDLLIVSGLAYGVDVAAHKAALDNGLPTVAVLAHGLDRIYPSGHRSIAMEMLRNGGLLTDYPMGTEPERFNFVGRNRIVAGLSDATLVIESAEKGGSLITAGLAFGYNREVLALPGRATDSRSAGCNALIRDQKAALVSSAQDVLTLLDWSSTIDAKPQTLNFRPDSWPDTPVAECLLRAGTASVDELTRATGLPINDVSAQLFDLELDGLVQSQPGGIYSVI”: the “soluble on expression in E. coli” value is “not soluble”.

Turning to “MNSGDNIIKKKSFTFAVRIVNLYKVLSSEIKEFVMSKQLLRSGTSVGANIREALNAQSKPGFIHKLAISQKECDETGYTNNVEFESMNTDAIELLKIVRSIIMTSKKNIIHNSLEHHHHHH”, the “soluble on expression in E. coli” value is “not soluble”.

“MGSDKIHHHHHHVTDHGFSFCAHAEQYAIIGSLSQLETSDNRDCDIRRPALNRCMAEKGTLRPEAAQIFQRLEALGLKQRELAQALGIEENKISKVRAGERQFKGAELLAAYEWLDQREAEAHMPRLSRVAAVGQQVIPATPVEGEVVQIQKLDLSLSMGPGTLIDGYVESELVSFDLGFVRLFTRAASDHLRLVTGIGDSMEPTLKWGDLILIDTTDRMLSKQDGIYWINLYGAAGIKRLRAIGPRTILVKSDNPGVDDQEVEAEDLRIEGRAIWATRGL”: the “soluble on expression in E. coli” value is given as “not soluble”.

“SAATVPATTRSDQTWDFSCNLDVSFESEEHALIAYTSLAVDKELQPDKVRRVMSVSNNKLSVHFEAIEARLLRASFSAFVDVLTLATRTIQEFGQK”: the “soluble on expression in E. coli” value is listed as “soluble”.

“MGSDKIHHHHHHMSLALQYFKALSDETRLRLIHVLNRHELSVNELVSILEMGQSRVSRHLKILTGAGLLTSRRDGLWVFYSAAAEGDGRAFLDAVTPFVTTDMVLQADLDMAQKIIEERALKTRQFFNAIAEDWDELNREVLGGFDLAGAVAEAMPQCETAVDLGCGTGSVIERMLQRSQQVIGVDGSPRMLELARRRFVEGAERVSLRIGELDHLPLRDGEADFASINMVLHHLSDPGVALGEIRRVLRLGGQLMVTDFDRHDNERMRSDYGDRWLGFEGVQLEGLLREAGFTVRECRRQGVAKGLALHLMLAEKTQQ”: the “soluble on expression in E. coli” value is listed as “not soluble”.

As for “MSSNALYTDLSGYYDLMCSDINYQQQSASIHRLHQFLGNNGKQHLDLACGTGPHVRHFIDLGYQCSGLDINQPMLDMAMRRCPEAQFNLQDMTAFYLEQPVDLITCFLYSIHYSAGIERLKSCIASVHRALNDGGIFCFNSVDKHCIDNRLSIKHFAEFEGYHFAFESGWHYNGQGEKQSLNLSIAKRQQPFTQLTDFEADTSLHQTELWQDQHTMVATSFAELQALLAPYFEVHIFEHDYEKIVPWDLSSGNALFVCVKILEHHHHHH”, the “soluble on expression in E. coli” value is listed as “not soluble”.

For “MGSDKIHHHHHHMSLANRTTSSAYRLFNLRLESKTLLSPSLARCVFTGPEVRQMKLDAPDQRIKLLFASESGELTPMTVSDTWYQDYLALPRERRPILRTYTLRSVSRDLQQATIDFVLHGDTGPASSWAGHAKPGDALQIVAPNAEADGASGGYEWAPHDGVEQVLLIADETALPAAMGILEQLATQPSPPSVQAFFEVPKAADCVTPSDFPFAQIHWLPREETGSTIWGERLLYAVQQDVKIPASACINRDDIAQETPEDELLWERATAHRPFYAWVAGESSAIKRLRRYLLDERHLDKETINFMAYWSHR”, the “soluble on expression in E. coli” value is “not soluble”.
